Measured values published in paper PMC5296606, “A Ferredoxin- and F420H2-Dependent, Electron-Bifurcating, Heterodisulfide Reductase with Homologs in the Domains Bacteria and Archaea” (mBio, 2017).

Legend:
Format in all cases: biochemical, Methanosarcina acetivorans
[1] = substrate: O=S(=O)(O)CCS; assay: reverse heterodisulfide reductase assay; settings: co-substrate HSCoB, 21 °C
[2] = substrate: C[C@@H](OP(=O)(O)O)[C@H](NC(=O)CCCCCCS)C(=O)O; assay: reverse heterodisulfide reductase assay; settings: co-substrate HSCoM, 21 °C
[3] = substrate: C[C@@H](OP(=O)(O)O)[C@H](NC(=O)CCCCCCSSCCS(=O)(=O)O)C(=O)O; assay: forward heterodisulfide reductase assay with reduced methyl viologen; settings: reduced methyl viologen as electron donor, 21 °C, HdrA2 + HdrB2C2, no ferredoxin
Source text: forward heterodisulfide reductase assay with reduced methyl viologen on HdrA2B2C2

B1: HdrB2C2 (Methanosarcina acetivorans C2A) (protein)
chain: MAKLSLFRGCIVPNRYPGIEKATKLCLQKLEVDAVDLPGASCCPAPGVFKSFDKATWLALASRNIVLSERMGRDILTVCNGCYGSLADANIELKNDPEMKACTNSCLKEIGMEYKGTAEVRHIIEFLYKELGPEKLKSFITTPLDLKVALHYGCHLIKPSKERNLGETEAPVFFDELVEATGAKSVDYTDKMMCCGAGGGVRSGHAAESLEMLEHKLACIRNAGVDCIVNACPFCHLQFDRGQLAVNEKFGTDYSIPVLHYSQLLGLALGFSPDELGIEQNAIQNIEFLAKIYEISAGLR
notes: with Heterodisulfide reductase subunit C2 (CoB--CoM heterodisulfide reductase iron-sulfur subunit C 2)
For B1, which Km ([1]; no HdrA2) is on record?
The Km was 1400 ± 200 µM.

What about the Vmax ([1]; no HdrA2) of the same protein?
Its Vmax is 0.6 µmol/min/mg.

What about the Km ([2]; no HdrA2) of the same protein?
Its Km is 1200 ± 200 µM.

B2: HdrA2B2C2 (Methanosarcina acetivorans C2A) (protein)
chain: MAKLSLFRGCIVPNRYPGIEKATKLCLQKLEVDAVDLPGASCCPAPGVFKSFDKATWLALASRNIVLSERMGRDILTVCNGCYGSLADANIELKNDPEMKACTNSCLKEIGMEYKGTAEVRHIIEFLYKELGPEKLKSFITTPLDLKVALHYGCHLIKPSKERNLGETEAPVFFDELVEATGAKSVDYTDKMMCCGAGGGVRSGHAAESLEMLEHKLACIRNAGVDCIVNACPFCHLQFDRGQLAVNEKFGTDYSIPVLHYSQLLGLALGFSPDELGIEQNAIQNIEFLAKIYEISAGLR
notes: complex reconstituted by mixing recombinant HdrA2 (C-terminal His6) with copurified HdrB2C2 (His6 on HdrB2); with Heterodisulfide reductase subunit C2 (CoB--CoM heterodisulfide reductase iron-sulfur subunit C 2); H(2)/F420-type heterodisulfide reductase subunit A2 (CoB--CoM heterodisulfide reductase iron-sulfur subunit A 2; HdrA-MvhD fusion)
Which results are given for B2?
Km [3]: 50 ± 10 µM; Vmax [3]: 2.2 µmol/min/mg

B3: HdrB2 (Methanosarcina acetivorans C2A) (protein)
chain: MAKLSLFRGCIVPNRYPGIEKATKLCLQKLEVDAVDLPGASCCPAPGVFKSFDKATWLALASRNIVLSERMGRDILTVCNGCYGSLADANIELKNDPEMKACTNSCLKEIGMEYKGTAEVRHIIEFLYKELGPEKLKSFITTPLDLKVALHYGCHLIKPSKERNLGETEAPVFFDELVEATGAKSVDYTDKMMCCGAGGGVRSGHAAESLEMLEHKLACIRNAGVDCIVNACPFCHLQFDRGQLAVNEKFGTDYSIPVLHYSQLLGLALGFSPDELGIEQNAIQNIEFLAKIYEISAGLR
What does the source list for B3?
Km ([1]; HdrB2 alone): 1200 ± 300 µM; Vmax ([1]; HdrB2 alone): 0.5 µmol/min/mg; Km ([2]; HdrB2 alone): 1100 ± 200 µM
